Results taken from IntAct's records for PubMed 16868027.

B1: Disintegrin and metalloproteinase domain-containing protein 22 (Homo sapiens), Q9P0K1-1 (parent)
chain: MQAAVAVSVPFLLLCVLGTCPPARCGQAGDASLMELEKRKENRFVERQSIVPLRLIYRSGGEDESRHDALDTRVRGDLGGPQLTHVDQASFQVDAFGTSFILDVVLNHDLLSSEYIERHIEHGGKTVEVKGGEHCYYQGHIRGNPDSFVALSTCHGLHGMFYDGNHTYLIEPEENDTTQEDFHFHSVYKSRLFEFSLDDLPSEFQQVNITPSKFILKPRPKRSKRQLRRYPRNVEEETKYIELMIVNDHLMFKKHRLSVVHTNTYAKSVVNMADLIYKDQLKTRIVLVAMETWATDNKFAISENPLITLREFMKYRRDFIKEKSDAVHLFSGSQFESSRSGAAYIGGICSLLKGGGVNEFGKTDLMAVTLAQSLAHNIGIISDKRKLASGECKCEDTWSGCIMGDTGYYLPKKFTQCNIEEYHDFLNSGGGACLFNKPSKLLDPPECGNGFIETGEECDCGTPAECVLEGAECCKKCTLTQDSQCSDGLCCKKCKFQPMGTVCREAVNDCDIRETCSGNSSQCAPNIHKMDGYSCDGVQGICFGGRCKTRDRQCKYIWGQKVTASDKYCYEKLNIEGTEKGNCGKDKDTWIQCNKRDVLCGYLLCTNIGNIPRLGELDGEITSTLVVQQGRTLNCSGGHVKLEEDVDLGYVEDGTPCGPQMMCLEHRCLPVASFNFSTCLSSKEGTICSGNGVCSNELKCVCNRHWIGSDCNTYFPHNDDAKTGITLSGNGVAGTNIIIGIIAGTILVLALILGITAWGYKNYREQRQLPQGDYVKKPGDGDSFYSDIPPGVSTNSASSSKKRSNGLSHSWSERIPDTKHISDICENGRPRSNSWQGNLGGNKKKIRGKRFRPRSNSTETLSPAKSPSSSTGSIASSRKYPYPMPPLPDEDKKVNRQSARLWETSI
partner: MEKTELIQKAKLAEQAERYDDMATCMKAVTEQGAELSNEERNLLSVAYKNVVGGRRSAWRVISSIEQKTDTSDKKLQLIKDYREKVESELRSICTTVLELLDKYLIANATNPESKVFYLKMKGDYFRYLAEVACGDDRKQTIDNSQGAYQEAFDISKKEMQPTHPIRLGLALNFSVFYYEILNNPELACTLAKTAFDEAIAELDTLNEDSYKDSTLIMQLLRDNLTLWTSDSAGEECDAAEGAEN
B2: Disintegrin and metalloproteinase domain-containing protein 22 (Homo sapiens), Q9P0K1-1 (parent)
chain: B1 chain
B3: Disintegrin and metalloproteinase domain-containing protein 22 (Homo sapiens), Q9P0K1-3 (parent)
chain: MQAAVAVSVPFLLLCVLGTCPPARCGQAGDASLMELEKRKENRFVERQSIVPLRLIYRSGGEDESRHDALDTRVRGDLGGPQLTHVDQASFQVDAFGTSFILDVVLNHDLLSSEYIERHIEHGGKTVEVKGGEHCYYQGHIRGNPDSFVALSTCHGLHGMFYDGNHTYLIEPEENDTTQEDFHFHSVYKSRLFEFSLDDLPSEFQQVNITPSKFILKPRPKRSKRQLRRYPRNVEEETKYIELMIVNDHLMFKKHRLSVVHTNTYAKSVVNMADLIYKDQLKTRIVLVAMETWATDNKFAISENPLITLREFMKYRRDFIKEKSDAVHLFSGSQFESSRSGAAYIGGICSLLKGGGVNEFGKTDLMAVTLAQSLAHNIGIISDKRKLASGECKCEDTWSGCIMGDTGYYLPKKFTQCNIEEYHDFLNSGGGACLFNKPSKLLDPPECGNGFIETGEECDCGTPAECVLEGAECCKKCTLTQDSQCSDGLCCKKCKFQPMGTVCREAVNDCDIRETCSGNSSQCAPNIHKMDGYSCDGVQGICFGGRCKTRDRQCKYIWGQKVTASDKYCYEKLNIEGTEKGNCGKDKDTWIQCNKRDVLCGYLLCTNIGNIPRLGELDGEITSTLVVQQGRTLNCSGGHVKLEEDVDLGYVEDGTPCGPQMMCLEHRCLPVASFNFSTCLSSKEGTICSGNGVCSNELKCVCNRHWIGSDCNTYFPHNDDAKTGITLSGNGVAGTNIIIGIIAGTILVLALILGITAWGYKNYREQRQLPQGDYVKKPGDGDSFYSDIPPGVSTNSASSSKKRSNGLSHSWSERIPDTKHISDICENGRPRSNSWQGNLGGNKKKIRGKRFRPRSNSTE

Variants of: B1
Details: with 1433t_human YWHAQ
With R831Q;S832G;R854Q;S855A the “effect of a mutation on the interaction” value was “disrupting interaction”.

Variants of: B2
Details: with 1433z_human YWHAZ
For R831Q;S832G;R854Q;S855A, the “effect of a mutation on the interaction” value was “disrupting interaction”.

Variants of: B2
Details: with 1433b_human YWHAB
With R831Q;S832G;R854Q;S855A the “effect of a mutation on the interaction” value was “disrupting interaction”.

Variants of: B3
Details: with 1433b_human YWHAB
R831Q;S832G;R854Q;S855A was tested, and the “effect of a mutation on the interaction” value was “disrupting interaction”. For R831Q;S832G, the “effect of a mutation on the interaction” value was “decreasing interaction”. With R854Q;S855A the “effect of a mutation on the interaction” value was “decreasing interaction”.

Variants of: B3
Details: with 1433z_human YWHAZ
In the case of R831Q;S832G;R854Q;S855A, the “effect of a mutation on the interaction” value is reported as “disrupting interaction”. For R831Q;S832G, the “effect of a mutation on the interaction” value was “decreasing interaction”.
